In patent publication US20260256913A1 (UTC TYHERAPEUTICS SHANGNAI, published 2026):

Columns and labels:
[1] = molecular target: CD40-Fc recombinant protein (human) (UniProt P25942); assay: flow cytometry, CD40-Fc staining of transduced T cells at day 13; control CAR without LACO
[2] = molecular target: T1, CD40-Fc recombinant protein (human, UniProt P25942 21-193); assay: flow cytometry, CD40-Fc staining of transduced T cells at day 13
T1 construct: also called CD40-Fc protein; CD40-Fc antigen; not shown: Fc part; detected with anti-human IgG Fc antibody
Description: Lentivirus-based CART cells were generated using the following procedures: T cells were isolated from PBMC and activated by anti-CD3/CD28 beads (T cell:beads=1:3). […] At day 13, the CAR expression was detected using anti-CD27 antibody, and the expression of LACO was detected using CD40-Fc (FIG. 42A-42B and Table 10). Generally, the transduction efficiency was between 30% to 50%.

LACO % (cells positive in CD40-Fc staining) [1] [%]	LACO/MFI (CD40-Fc staining) [1] [MFI]	LACO % (cells positive in CD40-Fc staining) [2] [%]	LACO/MFI (CD40-Fc staining) [2] [MFI]	Binder
2.9	44.3	–	–	CD27-CAR (CD27z) (protein) ATPAPKSCPERHYWAQGKLCCQMCEPGTFLVKDCDQHRKAAQCDPCIPGVSFSPDHHTRPHCESCRHCNSGLLVRNCTITANAECACRNGWQCRDKECTECDPLPNPSLTARSSQALSPHPQPTHLPYVSEMLEARTAGHMQTLADFRQLPARTLSTHWPPQRSLCSSDFIRILVIFSGMFLVFTLAGALFLHQRRKYRSNKGESPVEPAEPCRYSCPREEEGSTIPIQEDYRKPEPACSPRVKFSRSADAPAYQQGQNQLYNELNLGRREEYDVLDKRRGRDPEMGGKPRRKNPQEGLYNELQKDKMAEAYSEIGMKGERRRGKGHDGLYQGLSTATKDTYDALHMQALPPR
–	–	51.4	221	LACO A4025-9.3h11 (of CD27z-25-9.3) (bispecific antibody, Anti-CD40 scFv 4025 joined to anti-CD28 scFv 9.3h11, co-expressed with CD27z through T2A) QSALTQPASVSGSPGQSITVSCTGTRSDIGDYNYVSWYQQHPGKAPKLIIYDVSSRPSGVSNRYSGSKSGNTASLTISGLQAEDEADYYCSSYTSSSTLVFGGGTKVTVLGGGGSGGGGSGGGGSQVQLVQSGGGLVQPGGSLRLSCAASGFTFSSNWMSWVRQAPGKGLEWVANINQDGSEKYYVDSVKGRFTISRDNAKNSLYLQLNSLRAEDTAEYYCARGGYRYAYWGQGTLVTVSSGGGGSQVKLQESGPGLVKPSETLSITCTVSGFSLSDYGVHWVRQSPGKGLEWLGVIWAGGGTNYNSALMSRKTISKDNSKSQVFLKMSSLTAADTAVYYCARDKGYSYYYSMDYWGQGTTVTVSSGGGGSGGGGSGGGGSDIQLTQSPSSLSVSVGDRVTISCRASESVEYYVTSLMQWYQQKPGQAPKLLIFAASNVESGVPSRFSGSGSGTNFTLTISSVQEEDFAMYFCQQSRKVPYTFGGGTKLEIK
–	–	27.3	127	LACO A409-9.3h11 (of CD27z-9-9.3) (bispecific antibody, Anti-CD40 scFv 409 joined to anti-CD28 scFv 9.3h11, co-expressed with CD27z through T2A) QAVLTQPPSASGAPGQRVSISCSGGSSNIGSHTVNWYQQLPGAAPRLLMFSNYQRPSGVPDRFSASKSGTSASLAISGLRSEDEADYYCAAWDGTLKGYVFGTGTKVTVLGGGGSGGGGSGGGGSEVQLVESGGGVVLPGRSLRLSCAASGFTLRSYGMHWVRQATGKGLEWVSAIGTAGDTYYPGSVKGRFTISRENAKNSLYLQMNSLRAGDTAVYYCARADRLGGYGMDVWGQGTTVTVSSGGGGSQVKLQESGPGLVKPSETLSITCTVSGFSLSDYGVHWVRQSPGKGLEWLGVIWAGGGTNYNSALMSRKTISKDNSKSQVFLKMSSLTAADTAVYYCARDKGYSYYYSMDYWGQGTTVTVSSGGGGSGGGGSGGGGSDIQLTQSPSSLSVSVGDRVTISCRASESVEYYVTSLMQWYQQKPGQAPKLLIFAASNVESGVPSRFSGSGSGTNFTLTISSVQEEDFAMYFCQQSRKVPYTFGGGTKLEIK
